Patent publication US20180125995A1, “ANTI-STAPHYLOCOCCUS AUREUS ANTIBODY RIFAMYCIN CONJUGATES AND USES THEREOF” (priority 2014, published 2018)

Assays:
USA300 = assay: Uptake and killing of preopsonized USA300 by human PMN; assay type: cell-based, Staphylococcus aureus
Protocol: (§1) (FIGS. 5A-C) Bacteria were preopsonized with huIgG1 mAbs rF1 (squares), 4675 anti-ClfA (triangles), or anti-herpes virus gD (circles). (FIG. 5A): Binding of mAbs to WT (USA300-Aspa) bacteria was assessed by flow cytometry, and expressed as mean fluorescent intensity (MFI). (FIG. 5B): CFSE-labeled, preopsonized WT (USA300-Aspa) bacteria were incubated with human PMN. Bacterial uptake was expressed as % of CFSE-positive PMN, after gating for CD11b-positive cells by flow cytometry. (FIG. 5C): Preopsonized WT (USA300-Aspa) bacteria were incubated with PMN to assess bacterial killing. Numbers of viable CFU per mL are representative of at least three experiments.

15 S. aureus strains = assay: FACS analysis of rF1 binding to S. aureus strains; set-up: species or system Staphylococcus aureus; details: flow cytometry, all 15 strains tested
Protocol: (§2) Whole bacteria were harvested from TSA plates or TSB cultures and washed with HBSS without phenol red supplemented with 0.1% IgG free BSA (Sigma) and 10 mM Hepes, pH 7.4 (HB buffer) Bacteria (20×10^8 CFU/mL) were incubated with 300 μg/mL of rabbit IgG (Sigma) in HB buffer for 1 h at room temperature (RT) to block nonspecific IgG binding. Bacteria were stained with 2 μg/mL of primary antibodies, including rF1 or isotype control IgG1 mAb gD:5237 (Nakamura G R, et al. (1993) J Virol 67: 6179-6191), and next with fluorescent anti-human IgG secondary antibodies (Jackson Immunoresearch, West Grove, Pa.). The bacteria were washed and analyzed by FACSCalibur® (BD).

[1] = test system: S. saprophyticus, S. lugdunensis, S. simulans, S. carnosus, Streptococcus pyogenes, Bacillus subtilis, Enterococcus faecalis, Listeria monocytogenes; assay: FACS analysis of rF1 binding to other staphylococcal and Gram-positive species; details: flow cytometry
Protocol: as §2

[2] = test system: USA300 derived from infected mouse kidneys, livers and lungs; assay: FACS analysis of rF1 binding to USA300 from infected mouse tissues; set-up: species or system Staphylococcus aureus
Protocol: (§3) For antibody staining of bacteria from infected mouse tissues, 6-8 weeks old female C57Bl/6 mice (Charles River, Wilmington, Mass.) were injected intravenously with 10^8 CFU of logphase-grown USA300 in PBS. Mouse organs were harvested two days after infection. Rabbit infective endocarditis (IE) was established as described in Tattevin P, et al. (2010) Antimicrobial agents and chemotherapy 54: 610-613. Rabbits were injected intravenously with 5×10^7 CFU of stationary-phase grown MRSA strain COL, and heart vegetations were harvested eighteen hours later. Treatment with 30 mg/kg of vancomycin was given intravenously b.i.d. 18 h after infection with 7×10^7 CFU stationary-phase COL.
(§4) To lyse mouse or rabbit cells, tissues were homogenized in M tubes (Miltenyi, Auburn, Calif.) using a gentleMACS® cell dissociator (Miltenyi), followed by incubation for 10 min at RT in PBS containing 0.1% Triton-X100 (Thermo), 10 µg/mL of DNAseI (Roche) and Complete Mini protease inhibitor cocktail (Roche). The suspensions were passed through a 40 micron filter (BD) and bacteria were stained with mAbs as described above. […] During flow cytometry analysis, bacteria were gated for positive staining with mAb 702 from double fluorescence plots. […]

MRSA strain USA300 = assay: Flow cytometry binding of mAbs to USA300 bacteria; set-up: species or system Staphylococcus aureus; details: MFI
Protocol: as §1, §2

S. epidermidis = assay: FACS analysis of rF1 binding to S. epidermidis; set-up: species or system Staphylococcus epidermidis; details: flow cytometry
Protocol: as §2

[3] = test system: MRSA COL bacteria from heart vegetations; assay: FACS analysis of rF1 binding to bacteria from rabbit infective endocarditis heart vegetations; set-up: species or system Staphylococcus aureus; details: rabbit model of infectious endocarditis
Protocol: as §3, §4

B1: rF1: recombinantly produced F1, fully human IgG1 anti-SDR monoclonal antibody binding S. aureus and S. epidermidis (antibody, V domains shown)
VH: EVQLVESGGGLVQPGGSLRLSCAASGFTLSRFAMSWVRQAPGRGLEWVASINNGNNPYYARSVQYRFTVSRDVSQNTVSLQMNNLRAEDSATYFCAKDHPSSGWPTFDSWGPGTLVTVSS
VL: DIQLTQSPSALPASVGDRVSITCRASENVGDWLAWYRQKPGKAPNLLIYKTSILESGVPSRFSGSGSGTEFTLTISSLQPDDFATYYCQHYMRFPYTFGQGTKVEIKRTV
Q: For B1, which “viability of USA300 in the absence of PMN” value (USA300; no PMN) is on record?
A: did not affect viability

Q: What about the “bacterial killing by PMN (viability)” value (USA300; preopsonized USA300, human PMN) of the same molecule?
A: potent killing

Q: What about the “bacterial uptake by PMN” value (USA300; preopsonized USA300, human PMN) of the same molecule?
A: increased uptake

Q: And the “binding to S. aureus strains” value (15 S. aureus strains)?
A: potent binding activity

Q: And the “binding to other staphylococcal and Gram-positive species” value [1]?
A: did not bind

Q: What about the “binding to USA300 from infected mouse tissues” value ([2]; kidneys, livers and lungs after systemic infection) of the same molecule?
A: strongly bound

Q: What about the “duration of sustained binding to USA300 from mouse kidneys after infection” value ([2]; mouse kidneys) of the same molecule?
A: at least 8 days

Q: What about the “maximum binding relative to isotype-matched anti-ClfA mAb” value (MRSA strain USA300) of the same molecule?
A: approximately 10 fold

Q: What about the “binding to S. epidermidis” value (S. epidermidis) of the same molecule?
A: detectable

Q: What about the “binding to MRSA COL from rabbit heart vegetations” value [3] of the same molecule?
A: strongly bound
